Data from patent publication EP4089108A1 (Cytoki Pharma ApS, dated 2022).

Molecular target: T1, human IL-22 receptor (human IL-22Ra and human IL-10Rb) expressed on BHK reporter cells (human, UniProt Q8N6P7 16-574; Q08334 20-325)
T1 sequence (looked up) 1: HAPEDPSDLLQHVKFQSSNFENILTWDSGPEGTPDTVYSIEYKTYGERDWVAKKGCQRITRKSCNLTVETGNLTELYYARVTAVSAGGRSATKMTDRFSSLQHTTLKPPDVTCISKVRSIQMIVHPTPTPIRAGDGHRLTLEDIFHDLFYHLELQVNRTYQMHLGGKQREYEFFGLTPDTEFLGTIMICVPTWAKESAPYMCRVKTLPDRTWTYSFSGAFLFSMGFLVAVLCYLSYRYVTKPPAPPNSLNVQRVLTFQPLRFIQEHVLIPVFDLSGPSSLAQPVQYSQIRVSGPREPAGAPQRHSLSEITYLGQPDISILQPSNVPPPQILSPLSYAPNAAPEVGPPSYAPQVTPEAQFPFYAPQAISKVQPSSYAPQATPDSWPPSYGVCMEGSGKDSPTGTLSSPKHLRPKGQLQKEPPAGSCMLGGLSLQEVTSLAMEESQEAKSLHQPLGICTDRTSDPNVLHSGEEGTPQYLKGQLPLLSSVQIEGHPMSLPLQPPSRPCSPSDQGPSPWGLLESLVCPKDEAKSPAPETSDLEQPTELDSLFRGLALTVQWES
T1 sequence (looked up) 2: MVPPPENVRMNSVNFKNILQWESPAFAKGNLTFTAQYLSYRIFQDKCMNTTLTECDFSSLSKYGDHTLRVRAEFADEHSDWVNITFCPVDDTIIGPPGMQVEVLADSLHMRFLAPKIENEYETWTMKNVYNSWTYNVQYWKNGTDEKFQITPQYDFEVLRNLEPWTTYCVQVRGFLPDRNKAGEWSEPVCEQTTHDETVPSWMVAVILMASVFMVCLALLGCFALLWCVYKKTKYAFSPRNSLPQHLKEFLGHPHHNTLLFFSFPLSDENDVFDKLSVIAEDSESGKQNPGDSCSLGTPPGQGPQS
Assay: cell-based or functional assay

B1: native mature human IL-22 (ligand)
chain: APISSHCRLDKSNFQQPYITNRTFMLAKEASLADNNTDVRLIGEKLFHGVSMSERCYLMKQVLNFTLEEVLFPQSDRFQPYMQEVVPFLARLSNRLSTCHIEGDDLHIQRNVQKLKDTVKKLGESGEIKAIGELDLLFMSLRNACI
In the case of B1, the “EC50, BHK cell reporter gene assay (luciferase with STAT3-induced promoter)” value is reported as 70 pM.

B2: Derivative 1 (ligand)
chain: GPGCPISSHCRLDKSNFQQPYITNRTFMLAKEASLADNNTDVRLIGEKLFHGVSMSERCYLMKQVLNFTLEEVLFPQSDRFQPYMQEVVPFLARLSNRLSTCHIEGDDLHIQRNVQKLKDTVKKLGESGEIKAIGELDLLFMSLRNACI
modifications: C16 monoacid covalently attached through linker γGlu-OEG-OEG-εLys-αAc to Cys at position 1 of hIL-22 numbering (attachment site 1C; position 4 of SEQ ID NO. 20)
B2 was tested, and the “EC50, BHK cell reporter gene assay (luciferase with STAT3-induced promoter)” value was 60 pM.
